Measurements reported in paper PMC6160459, “Identification of Peptide Mimotope Ligands for Natalizumab” (Scientific Reports, 2018).
Where two headings read alike, the source gives them in different places.

What was measured:
[1] = Ntz-01 peptide ELISA of heat exposed natalizumab samples; assay type: binding; details: 60 °C for 30 m, 1 h or 2 h; particularly for the GSH treated samples; 0.4% serum
Description: Wells of a NeutrAvidin-coated 96-well plate or 8-well strips (Thermo Fisher) were coated with 100 µl of biotinylated peptide at 7.5 µg/ml in molecular grade H2O (GE Healthcare Life Sciences, Logan, UT) for 1 h. Wells were washed five times with TBST. Wells were then blocked with 200 µl of 5% normal goat serum diluted from 10% normal goat serum (Thermo Fisher) in TBS for 1 h. Wells were washed five times with TBST. Antibody was spiked into 2.5% BSA in TBST (2.5% BSA/TBST) or into pooled defibrinated human AB serum (serum; Gemini, Woodland CA) diluted in 2.5% BSA/TBST. The final dilution of serum was 0.4% unless otherwise noted. Wells were incubated with 100 µl of antibody-spiked samples for 1 h and then washed five times with TBST. Bound natalizumab was detected with mouse anti-human IgG4 horse radish peroxidase (anti-IgG4-HRP; Abcam, Cambridge, MA) diluted 1:2000-1:5000 in TBST. Wells were incubated with 100 µl of diluted anti-IgG4-HRP for 30 m and then washed nine times with TBST. Turbo TMB substrate (Thermo Fisher) was added to the wells and allowed to develop for 12–15 m shielded from light. The reaction was stopped with 1 M H2SO4 (Thermo Fisher). Optical density (OD) was read at 450 nm on a Multiskan FC plate reader (Thermo Fisher) and data were analyzed with GraphPad Prism v5 or v7 software (Graphpad Software Inc, La Jolla CA).
Natalizumab was spiked into neat serum. […]

[2] = test system: MS patients; details: cited from earlier work
Text: The immunosuppressive activity of natalizumab has been associated with opportunistic infection by John Cunningham (JC) virus which may lead to progressive multifocal leukoencephalopathy (PML), a serious and often-fatal opportunistic brain infection. Approximately 56–58% of MS patients are positive for anti-JC virus antibodies, which puts them at increased risk for developing PML while on natalizumab[5]–[7]. The estimated incidence of PML in patients positive for anti-JC virus antibodies is 3.87 per 1,000 patients after at least 1 month of natalizumab treatment. It increases to 11.1 per 1,000 p ... || The standard dosing regimen for natalizumab is 300 mg by IV infusion every 4 weeks. […] It has been postulated that high serum concentrations may increase the risk of PML[10],[11]. […] Conversely, low drug concentrations have been associated with a lack of natalizumab efficacy. Multiple enzyme-linked immunosorbent assays (ELISAs) to detect levels of circulating natal ...

[3] = test system: MS patients; details: AFFIRM study; cited from earlier work
Text: Multiple sclerosis (MS) is a leading cause of neurologic disability that affects approximately 400,000 people in the US and 2.5 million worldwide. Natalizumab (marketed as Tysabri) is the top selling biologic drug indicated for MS and has been used to treat 177,800 patients worldwide as of November 2017[2]. […] Natalizumab is a humanized recombinant IgG4 mAb that targets the α4 chain of α4β1 integrin (also known as very late a ...

[4] = test system: natalizumab neutralizing anti-Idiotype (anti-Id) Fab fragment; test: Anti-Id ELISA of heat exposed natalizumab samples; assay type: binding; details: 60 °C for 30 m, 1 h or 2 h; GSH or non-GSH treated samples; 0.4% serum
Description: Wells of a Costar 96-well high binding plate were coated with 100 µl of natalizumab neutralizing anti-Idiotype (anti-Id) Fab fragment (Bio-Rad, Hercules CA) in phosphate-buffered saline (PBS; Corning Life Sciences) at 1 µg/ml overnight at 4 °C. The remining protocol proceeded as in peptide ELISA Protocol-1, with the following exceptions. 1) PBS/PBST was used in place of TBS/TBST (except for washes), 2) goat anti-human IgG HRP (Jackson Immunoresearch, West Grove PA) diluted 1:5000 was used as the secondary conjugate, and 3) TMB substrate was allowed to develop for 8–10 m.
(§1) Natalizumab was spiked into neat serum. The samples were split in half and 100 mM Glutathione reduced (GSH, Sigma-Aldrich, St. Louis MO) in H2O was added to one set to produce a final concentration of 3 mM GSH. Samples were then incubated overnight at 37 °C to induce arm exchange of IgG4 molecules. For ELISA assays, samples were subsequently diluted 250-fold in 2.5% BSA/TBST to produce a final serum concentration of 0.4%.
(§2) Samples containing GSH treated or non-GSH treated natalizumab in serum were heated at 60 °C for 30 m, 1 h, or 2 h. Control samples were held at 4 °C. For ELISA assays, samples were subsequently diluted 250-fold in 2.5% BSA/TBST to produce a final serum concentration of 0.4%.

[5] = test system: CD49d+ JeKo-1 cells; test: CD49d+ cell based binding assay of heat exposed natalizumab (flow cytometry); details: 60 °C for 30 m, 1 h or 2 h; both GSH and non-GSH treated samples
Description: Natalizumab-spiked samples in serum were diluted 25-fold in 5% FBS/DPBS/0.05% NaN3. CD49d+ JeKo-1 cells were suspended in 5% FBS/DPBS/0.05% NaN3, and 25 µl of suspension (10^5 cells) were added to 25 µl of diluted sample and incubated for 20 m on ice. Washes, secondary incubation, collection, and analysis proceeded as in the CD49d+ Cell Based Peptide Competition Assay protocol.
as §1, §2

[6] = standard dosing, 300 mg by IV infusion every 4 weeks; cited from earlier work
Description: The standard dosing regimen for natalizumab is 300 mg by IV infusion every 4 weeks. […] It has been postulated that high serum concentrations may increase the risk of PML[10],[11]. […] Conversely, low drug concentrations have been associated with a lack of natalizumab efficacy. Multiple enzyme-linked immunosorbent assays (ELISAs) to detect levels of circulating natal ...

B1: natalizumab: humanized recombinant IgG4 mAb that targets the α4 chain of α4β1 integrin and a4β7 integrin (antibody, V domains shown)
VH: QVQLVQSGAEVKKPGASVKVSCKASGFNIKDTYIHWVRQAPGQRLEWMGRIDPANGYTKYDPKFQGRVTITADTSASTAYMELSSLRSEDTAVYYCAREGYYGNYGVYAMDYWGQGTLVTVSS
VL: DIQMTQSPSSLSASVGDRVTITCKTSQDINKYMAWYQQTPGKAPRLLIHYTSALQPGIPSRFSGSGSGRDYTFTISSLQPEDIATYYCLQYDNLWTFGQGTKVEIK
- binding with increased heat exposure by Ntz-01 peptide ELISA [1]: Decreased binding
- estimated incidence of PML ([2]; JC virus antibody positive patients with prior use of immunosuppressants and long-term use of natalizumab (24–48 months)): 11.1 per 1,000 patients
- decrease of PML risk ([2]; extended interval dosing (infusion every 5–12 weeks instead of every 4 weeks)): 94%
- estimated incidence of PML ([2]; patients positive for anti-JC virus antibodies, after at least 1 month of natalizumab treatment): 3.87 per 1,000 patients
- reduction of sustained physical disability relative to placebo [3]: 42%
- changes in binding with heat exposure by anti-Id ELISA [4]: Changes in binding with heat exposure were not observed
- functional cell binding with increased heat exposure [5]: Decreased cell binding
- variation of serum natalizumab concentrations [6]: over 100 fold
